# Target: human GC-C (guanylate cyclase C) stably expressed in 293T cells (human) (UniProt P25092)
# Assay: cell-based or functional assay
# Chain of human GC-C (guanylate cyclase C) stably expressed in 293T cells (human) (P25092 24-1073): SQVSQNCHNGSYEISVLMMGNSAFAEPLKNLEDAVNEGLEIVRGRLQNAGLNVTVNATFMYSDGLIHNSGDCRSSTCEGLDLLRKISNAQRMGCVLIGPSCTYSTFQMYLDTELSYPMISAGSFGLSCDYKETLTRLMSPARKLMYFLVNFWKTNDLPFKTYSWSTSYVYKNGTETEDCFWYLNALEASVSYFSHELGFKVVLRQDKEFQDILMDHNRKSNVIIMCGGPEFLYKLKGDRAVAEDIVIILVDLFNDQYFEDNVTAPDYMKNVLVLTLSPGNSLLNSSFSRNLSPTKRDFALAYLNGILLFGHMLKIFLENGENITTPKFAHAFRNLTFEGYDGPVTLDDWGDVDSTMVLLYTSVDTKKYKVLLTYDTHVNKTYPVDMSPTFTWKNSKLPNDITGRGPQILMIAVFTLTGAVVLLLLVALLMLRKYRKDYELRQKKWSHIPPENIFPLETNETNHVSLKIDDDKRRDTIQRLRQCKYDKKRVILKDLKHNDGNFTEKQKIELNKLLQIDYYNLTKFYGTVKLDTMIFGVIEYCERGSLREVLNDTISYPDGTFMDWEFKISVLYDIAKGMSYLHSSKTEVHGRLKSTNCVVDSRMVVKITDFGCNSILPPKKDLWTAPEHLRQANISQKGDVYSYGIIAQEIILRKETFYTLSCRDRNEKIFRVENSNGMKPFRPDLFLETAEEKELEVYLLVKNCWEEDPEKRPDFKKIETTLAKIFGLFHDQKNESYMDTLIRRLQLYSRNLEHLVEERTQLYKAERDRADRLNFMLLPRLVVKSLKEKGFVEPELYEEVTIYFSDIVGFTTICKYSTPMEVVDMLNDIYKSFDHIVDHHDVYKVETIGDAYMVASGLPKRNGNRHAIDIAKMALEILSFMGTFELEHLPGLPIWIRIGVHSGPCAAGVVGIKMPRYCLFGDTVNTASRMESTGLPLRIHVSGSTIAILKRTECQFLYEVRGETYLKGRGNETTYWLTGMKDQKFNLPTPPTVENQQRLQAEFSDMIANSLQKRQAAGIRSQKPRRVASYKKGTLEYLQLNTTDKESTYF
substance,measurement,value
guanylin (peptide),"EC50 of the cGMP response (absorbance, Direct Cyclic GMP Enzyme Immunoassay Kit) to a guanylin dose-response, 30 min, GC-C-expressing 293T cell line",1.1 nM
same,cGMP level in the GC-C-expressing cell line treated with low concentrations of guanylin,6 pmol/mL

# — US20120015841A1
